US20200199241A1 (Chugai, published 2020)
Numbering of substitutions follows the chain as printed. Names may count otherwise.

T1: human FcγRIIb (human, UniProt P31994 43-217, limits assumed)
T1 construct: also called FcgRIIb
T1 sequence: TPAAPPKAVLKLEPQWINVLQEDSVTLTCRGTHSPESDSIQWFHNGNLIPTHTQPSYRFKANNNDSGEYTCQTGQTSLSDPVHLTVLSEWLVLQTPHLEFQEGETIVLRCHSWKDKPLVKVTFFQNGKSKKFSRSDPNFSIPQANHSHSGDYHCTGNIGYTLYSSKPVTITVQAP

T2: human FcγRIIa(H) (human, UniProt P12318 36-217)
T2 construct: also called FcgRIIaH; FcγRIIa type H
T2 sequence: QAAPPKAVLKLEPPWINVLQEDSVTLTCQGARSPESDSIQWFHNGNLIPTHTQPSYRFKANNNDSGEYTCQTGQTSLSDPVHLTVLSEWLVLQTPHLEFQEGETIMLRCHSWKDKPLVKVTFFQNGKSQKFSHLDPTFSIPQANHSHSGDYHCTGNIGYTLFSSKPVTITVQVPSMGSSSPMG

T3: human FcγRIIa(R) (human, UniProt P12318 36-217)
T3 construct: also called FcgRIIaR; FcγRIIa type R
T3 chain: T2 sequence with H133R

B1: GpH7-B3 variant D265S/GpL16-k0 (antibody, human IgG1)
heavy: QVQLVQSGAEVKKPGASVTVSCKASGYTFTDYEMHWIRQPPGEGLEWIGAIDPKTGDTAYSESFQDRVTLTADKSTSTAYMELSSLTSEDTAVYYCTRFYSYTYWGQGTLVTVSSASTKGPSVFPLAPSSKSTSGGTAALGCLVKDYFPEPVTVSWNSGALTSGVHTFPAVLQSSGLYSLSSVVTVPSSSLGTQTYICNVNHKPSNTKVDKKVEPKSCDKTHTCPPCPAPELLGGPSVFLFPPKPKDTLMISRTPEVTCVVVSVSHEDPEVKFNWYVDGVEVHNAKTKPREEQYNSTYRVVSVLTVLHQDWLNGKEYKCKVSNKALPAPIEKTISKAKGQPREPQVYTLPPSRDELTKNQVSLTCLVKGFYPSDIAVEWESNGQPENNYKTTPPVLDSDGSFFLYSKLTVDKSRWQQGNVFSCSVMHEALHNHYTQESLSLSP
light: DIVMTQSPLSLPVTPGEPASISCQASESLVHSNRNTYLHWYLQKPGQSPQLLIYKVSNRFSGVPDRFSGSGSGTDFTLKISRVEAEDVGVYYCSQNTHVPPTFGQGTKVEIE
notes: copies: 2 + 2
B2: GpH7-B3 variant D265T/GpL16-k0 (antibody, human IgG1)
heavy: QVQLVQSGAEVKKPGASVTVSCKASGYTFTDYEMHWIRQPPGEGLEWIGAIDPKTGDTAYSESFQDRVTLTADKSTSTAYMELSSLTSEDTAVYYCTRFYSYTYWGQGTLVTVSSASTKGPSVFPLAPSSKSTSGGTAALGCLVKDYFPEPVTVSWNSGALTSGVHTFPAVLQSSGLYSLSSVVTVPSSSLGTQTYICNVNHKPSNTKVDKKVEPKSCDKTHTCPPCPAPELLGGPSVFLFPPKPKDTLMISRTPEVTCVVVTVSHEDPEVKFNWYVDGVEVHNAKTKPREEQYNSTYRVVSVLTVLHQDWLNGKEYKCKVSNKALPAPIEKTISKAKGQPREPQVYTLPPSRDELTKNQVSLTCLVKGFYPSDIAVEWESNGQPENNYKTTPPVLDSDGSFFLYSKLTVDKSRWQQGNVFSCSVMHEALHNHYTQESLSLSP
light: B1 light
notes: copies: 2 + 2
B3: GpH7-B3 variant D265V/GpL16-k0 (antibody, human IgG1)
heavy: not shown
light: B1 light
notes: copies: 2 + 2
B4: GpH7-B3 variant D265W/GpL16-k0 (antibody, human IgG1)
heavy: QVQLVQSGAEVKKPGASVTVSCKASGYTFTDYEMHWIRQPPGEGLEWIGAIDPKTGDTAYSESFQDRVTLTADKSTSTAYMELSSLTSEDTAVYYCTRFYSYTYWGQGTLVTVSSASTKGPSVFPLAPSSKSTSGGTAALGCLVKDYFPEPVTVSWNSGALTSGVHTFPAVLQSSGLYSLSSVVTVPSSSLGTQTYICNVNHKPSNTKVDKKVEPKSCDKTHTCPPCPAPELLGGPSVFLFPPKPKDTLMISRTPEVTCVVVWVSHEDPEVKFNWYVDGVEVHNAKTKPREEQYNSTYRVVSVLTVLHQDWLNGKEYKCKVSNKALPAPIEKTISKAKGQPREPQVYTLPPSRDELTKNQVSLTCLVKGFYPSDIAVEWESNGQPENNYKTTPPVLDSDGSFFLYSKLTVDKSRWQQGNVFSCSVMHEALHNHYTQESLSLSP
light: B1 light
notes: copies: 2 + 2
B5: GpH7-B3 variant D265Y/GpL16-k0 (antibody, human IgG1)
heavy: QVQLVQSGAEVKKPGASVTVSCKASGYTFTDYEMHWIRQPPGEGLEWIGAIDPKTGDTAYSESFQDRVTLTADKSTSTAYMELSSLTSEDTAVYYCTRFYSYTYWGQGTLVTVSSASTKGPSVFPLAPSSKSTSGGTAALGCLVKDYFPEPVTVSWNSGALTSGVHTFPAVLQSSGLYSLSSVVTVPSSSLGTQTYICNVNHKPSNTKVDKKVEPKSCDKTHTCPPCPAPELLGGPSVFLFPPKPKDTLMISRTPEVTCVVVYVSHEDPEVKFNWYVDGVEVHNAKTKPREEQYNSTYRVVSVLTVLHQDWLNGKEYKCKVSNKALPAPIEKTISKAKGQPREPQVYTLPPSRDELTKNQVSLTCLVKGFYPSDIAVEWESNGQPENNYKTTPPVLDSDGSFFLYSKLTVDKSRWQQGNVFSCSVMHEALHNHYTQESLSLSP
light: B1 light
notes: copies: 2 + 2
B6: GpH7-B3 variant D270G/GpL16-k0 (antibody, human IgG1)
heavy: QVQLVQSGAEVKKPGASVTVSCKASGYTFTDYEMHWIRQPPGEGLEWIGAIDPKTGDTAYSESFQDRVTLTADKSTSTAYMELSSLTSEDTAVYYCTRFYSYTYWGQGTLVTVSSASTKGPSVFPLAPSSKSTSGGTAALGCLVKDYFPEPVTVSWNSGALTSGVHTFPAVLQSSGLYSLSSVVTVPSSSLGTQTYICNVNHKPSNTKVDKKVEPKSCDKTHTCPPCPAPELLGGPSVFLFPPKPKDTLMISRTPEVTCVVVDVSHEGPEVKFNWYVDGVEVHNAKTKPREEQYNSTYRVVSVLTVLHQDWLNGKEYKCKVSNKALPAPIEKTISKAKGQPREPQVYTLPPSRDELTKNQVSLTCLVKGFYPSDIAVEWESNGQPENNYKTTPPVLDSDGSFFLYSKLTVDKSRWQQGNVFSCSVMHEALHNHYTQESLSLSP
light: B1 light
notes: copies: 2 + 2
B7: GpH7-B3 variant D270K/GpL16-k0 (antibody, human IgG1)
heavy: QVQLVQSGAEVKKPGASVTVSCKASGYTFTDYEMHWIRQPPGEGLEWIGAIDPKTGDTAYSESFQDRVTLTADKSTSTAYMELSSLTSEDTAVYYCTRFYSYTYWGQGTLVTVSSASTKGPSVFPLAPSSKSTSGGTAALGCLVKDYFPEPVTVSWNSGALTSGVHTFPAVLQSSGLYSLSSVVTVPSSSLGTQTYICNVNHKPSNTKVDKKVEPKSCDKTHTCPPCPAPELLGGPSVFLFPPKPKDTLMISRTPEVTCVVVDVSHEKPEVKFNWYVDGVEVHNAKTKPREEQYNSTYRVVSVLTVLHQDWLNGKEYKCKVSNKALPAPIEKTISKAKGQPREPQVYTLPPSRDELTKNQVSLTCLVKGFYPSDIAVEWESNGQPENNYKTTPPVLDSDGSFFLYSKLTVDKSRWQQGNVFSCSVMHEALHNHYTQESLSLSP
light: B1 light
notes: copies: 2 + 2
B8: GpH7-B3 variant D270P/GpL16-k0 (antibody, human IgG1)
heavy: not shown
light: B1 light
notes: copies: 2 + 2
B9: GpH7-B3 variant D270R/GpL16-k0 (antibody, human IgG1)
heavy: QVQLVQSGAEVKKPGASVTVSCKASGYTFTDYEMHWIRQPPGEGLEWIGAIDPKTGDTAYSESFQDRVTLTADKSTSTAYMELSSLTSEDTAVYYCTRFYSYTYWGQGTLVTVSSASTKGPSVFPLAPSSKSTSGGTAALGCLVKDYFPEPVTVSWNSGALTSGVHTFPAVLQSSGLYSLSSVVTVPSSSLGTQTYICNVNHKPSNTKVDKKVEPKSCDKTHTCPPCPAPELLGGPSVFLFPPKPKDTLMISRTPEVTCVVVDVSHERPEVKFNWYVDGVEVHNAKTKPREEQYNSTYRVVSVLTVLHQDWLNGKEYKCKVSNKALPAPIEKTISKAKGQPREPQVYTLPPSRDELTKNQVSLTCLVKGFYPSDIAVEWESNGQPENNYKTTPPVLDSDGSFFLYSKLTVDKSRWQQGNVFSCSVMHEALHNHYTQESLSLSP
light: B1 light
notes: copies: 2 + 2
B10: GpH7-B3 variant D270W/GpL16-k0 (antibody, human IgG1)
heavy: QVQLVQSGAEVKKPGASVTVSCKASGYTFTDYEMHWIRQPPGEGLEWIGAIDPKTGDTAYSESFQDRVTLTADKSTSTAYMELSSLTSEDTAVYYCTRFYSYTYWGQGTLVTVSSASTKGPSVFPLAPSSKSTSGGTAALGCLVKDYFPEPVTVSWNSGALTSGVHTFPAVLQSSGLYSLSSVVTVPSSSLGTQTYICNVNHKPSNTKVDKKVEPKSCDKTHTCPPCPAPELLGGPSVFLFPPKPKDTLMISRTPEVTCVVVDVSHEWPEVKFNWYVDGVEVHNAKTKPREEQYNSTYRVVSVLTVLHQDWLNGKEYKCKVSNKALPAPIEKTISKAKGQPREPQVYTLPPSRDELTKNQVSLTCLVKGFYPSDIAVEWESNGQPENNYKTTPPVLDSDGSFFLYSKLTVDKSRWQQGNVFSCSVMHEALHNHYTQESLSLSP
light: B1 light
notes: copies: 2 + 2
B11: GpH7-B3 variant E269A/GpL16-k0 (antibody, human IgG1)
heavy: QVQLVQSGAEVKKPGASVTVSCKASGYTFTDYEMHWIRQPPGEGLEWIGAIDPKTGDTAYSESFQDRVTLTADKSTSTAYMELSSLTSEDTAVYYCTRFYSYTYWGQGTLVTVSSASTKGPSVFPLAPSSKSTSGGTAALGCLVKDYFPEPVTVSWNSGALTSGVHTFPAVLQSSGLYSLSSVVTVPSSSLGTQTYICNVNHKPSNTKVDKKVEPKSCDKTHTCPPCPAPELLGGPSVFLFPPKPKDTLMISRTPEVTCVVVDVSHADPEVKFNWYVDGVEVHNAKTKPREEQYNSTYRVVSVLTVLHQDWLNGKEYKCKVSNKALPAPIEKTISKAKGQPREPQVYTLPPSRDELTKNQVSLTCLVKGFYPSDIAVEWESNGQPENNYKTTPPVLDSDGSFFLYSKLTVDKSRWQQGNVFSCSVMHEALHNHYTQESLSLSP
light: B1 light
notes: copies: 2 + 2
B12: GpH7-B3 variant E269F/GpL16-k0 (antibody, human IgG1)
heavy: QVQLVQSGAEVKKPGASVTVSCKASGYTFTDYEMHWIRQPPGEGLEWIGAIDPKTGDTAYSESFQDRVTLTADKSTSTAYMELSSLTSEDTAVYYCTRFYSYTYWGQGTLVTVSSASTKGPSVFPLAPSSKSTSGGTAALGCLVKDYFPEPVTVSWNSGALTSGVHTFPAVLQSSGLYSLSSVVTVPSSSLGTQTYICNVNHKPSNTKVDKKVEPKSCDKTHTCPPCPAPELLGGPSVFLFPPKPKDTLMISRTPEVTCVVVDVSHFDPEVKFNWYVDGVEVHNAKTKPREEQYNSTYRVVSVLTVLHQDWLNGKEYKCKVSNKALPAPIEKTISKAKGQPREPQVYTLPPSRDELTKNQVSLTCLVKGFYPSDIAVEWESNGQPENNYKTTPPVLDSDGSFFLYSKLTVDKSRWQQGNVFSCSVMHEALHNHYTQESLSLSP
light: B1 light
notes: copies: 2 + 2
B13: GpH7-B3 variant E269G/GpL16-k0 (antibody, human IgG1)
heavy: not shown
light: B1 light
notes: copies: 2 + 2
B14: GpH7-B3 variant E269L/GpL16-k0 (antibody, human IgG1)
heavy: not shown
light: B1 light
notes: copies: 2 + 2

These binders were tested against T1, human FcγRIIb (assay: SPR (Biacore);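 also: antibody variants captured on sensor chip, Fcγ receptor flowed over at 25 °C, bound receptor normalized to amount of captured antibody, expressed relative to reference antibody set as 100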).

B1 and B2 are the same in relative binding activity: 1 % of GpH7-B3/GpL16-k0 for the first, 1 % of GpH7-B3/GpL16-k0 for the second.

Going from B3 to B4, the relative binding activity falls from -1 % of GpH7-B3/GpL16-k0 to -2 % of GpH7-B3/GpL16-k0.

Compared with B5, B6 is higher in relative binding activity: -2 % of GpH7-B3/GpL16-k0 for the first, 3 % of GpH7-B3/GpL16-k0 for the second.

First: B7
Second: B8
The relative binding activity of the first is lower: -5 % of GpH7-B3/GpL16-k0 for the first, -1 % of GpH7-B3/GpL16-k0 for the second.

Compared with B9, B10 is higher in relative binding activity: -5 % of GpH7-B3/GpL16-k0 for the first, 2 % of GpH7-B3/GpL16-k0 for the second.

B11 and B12 are the same in relative binding activity: 13 % of GpH7-B3/GpL16-k0 for the first, 13 % of GpH7-B3/GpL16-k0 for the second.

Compared with B13, B14 is lower in relative binding activity: 25 % of GpH7-B3/GpL16-k0 for the first, 12 % of GpH7-B3/GpL16-k0 for the second.

These binders were tested against T2, human FcγRIIa(H) (assay: SPR (Biacore);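 also: antibody variants captured on sensor chip, Fcγ receptor flowed over at 25 °C, bound receptor normalized to amount of captured antibody, expressed relative to reference antibody set as 100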).

Going from B1 to B2, the relative binding activity rises from 2 % of GpH7-B3/GpL16-k0 to 5 % of GpH7-B3/GpL16-k0.

B3 and B4 are the same in relative binding activity: 0 % of GpH7-B3/GpL16-k0 for the first, 0 % of GpH7-B3/GpL16-k0 for the second.

Going from B5 to B6, the relative binding activity rises from 0 % of GpH7-B3/GpL16-k0 to 29 % of GpH7-B3/GpL16-k0.

Going from B7 to B8, the relative binding activity falls from 16 % of GpH7-B3/GpL16-k0 to 0 % of GpH7-B3/GpL16-k0.

Compared with B9, B10 is higher in relative binding activity: 11 % of GpH7-B3/GpL16-k0 for the first, 38 % of GpH7-B3/GpL16-k0 for the second.

Compared with B11, B12 is lower in relative binding activity: 51 % of GpH7-B3/GpL16-k0 for the first, 41 % of GpH7-B3/GpL16-k0 for the second.

Going from B13 to B14, the relative binding activity falls from 46 % of GpH7-B3/GpL16-k0 to 40 % of GpH7-B3/GpL16-k0.

Target: T3, human FcγRIIa(R)
Assay: SPR (Biacore);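 also: antibody variants captured on sensor chip, Fcγ receptor flowed over at 25 °C, bound receptor normalized to amount of captured antibody, expressed relative to reference antibody set as 100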

First: B1
Second: B2
The relative binding activity of the first is lower: 0 % of GpH7-B3/GpL16-k0 for the first, 2 % of GpH7-B3/GpL16-k0 for the second.

B3 and B4 are the same in relative binding activity: -1 % of GpH7-B3/GpL16-k0 for the first, -1 % of GpH7-B3/GpL16-k0 for the second.

Compared with B5, B6 is higher in relative binding activity: -1 % of GpH7-B3/GpL16-k0 for the first, 3 % of GpH7-B3/GpL16-k0 for the second.

Compared with B7, B8 is higher in relative binding activity: -4 % of GpH7-B3/GpL16-k0 for the first, -3 % of GpH7-B3/GpL16-k0 for the second.

First: B9
Second: B10
The relative binding activity of the first is lower: -5 % of GpH7-B3/GpL16-k0 for the first, -2 % of GpH7-B3/GpL16-k0 for the second.

Compared with B11, B12 is lower in relative binding activity: 20 % of GpH7-B3/GpL16-k0 for the first, 19 % of GpH7-B3/GpL16-k0 for the second.

Going from B13 to B14, the relative binding activity falls from 38 % of GpH7-B3/GpL16-k0 to 20 % of GpH7-B3/GpL16-k0.

What follows are binders tested against T4, human FcγRIIIa(F) (human, UniProt P08637 17-208, limits assumed) (assay: SPR (Biacore);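 also: antibody variants captured on sensor chip, Fcγ receptor flowed over at 25 °C, bound receptor normalized to amount of captured antibody, expressed relative to reference antibody set as 100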).
T4 construct: also called FcgRIIIaF; allotype F158
T4 sequence (P08637 other isoform, or with tags, fused parts or gaps limits assumed): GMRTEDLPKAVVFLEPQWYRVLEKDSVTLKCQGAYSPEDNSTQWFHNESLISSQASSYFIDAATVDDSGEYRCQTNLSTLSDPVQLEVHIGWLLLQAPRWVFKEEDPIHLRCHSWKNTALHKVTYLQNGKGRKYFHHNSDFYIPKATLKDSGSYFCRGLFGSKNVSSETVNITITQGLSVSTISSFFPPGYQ

B1 and B2 are the same in relative binding activity: -2 % of GpH7-B3/GpL16-k0 for the first, -2 % of GpH7-B3/GpL16-k0 for the second.

Compared with B3, B4 is lower in relative binding activity: -1 % of GpH7-B3/GpL16-k0 for the first, -2 % of GpH7-B3/GpL16-k0 for the second.

Compared with B5, B6 is higher in relative binding activity: -1 % of GpH7-B3/GpL16-k0 for the first, 6 % of GpH7-B3/GpL16-k0 for the second.

First: B7
Second: B8
The relative binding activity of the first is higher: 5 % of GpH7-B3/GpL16-k0 for the first, -1 % of GpH7-B3/GpL16-k0 for the second.

First: B9
Second: B10
The relative binding activity of the first is lower: 2 % of GpH7-B3/GpL16-k0 for the first, 7 % of GpH7-B3/GpL16-k0 for the second.

Going from B11 to B12, the relative binding activity falls from 28 % of GpH7-B3/GpL16-k0 to 10 % of GpH7-B3/GpL16-k0.

Compared with B13, B14 is lower in relative binding activity: 27 % of GpH7-B3/GpL16-k0 for the first, 10 % of GpH7-B3/GpL16-k0 for the second.

The binders below were run against T5, human FcγRIa (human, UniProt P12314 16-292, limits assumed) (assay: SPR (Biacore)).
T5 construct: also called FcgRIa; FcγRI (CD64)
T5 sequence (P12314 16-292 limits assumed): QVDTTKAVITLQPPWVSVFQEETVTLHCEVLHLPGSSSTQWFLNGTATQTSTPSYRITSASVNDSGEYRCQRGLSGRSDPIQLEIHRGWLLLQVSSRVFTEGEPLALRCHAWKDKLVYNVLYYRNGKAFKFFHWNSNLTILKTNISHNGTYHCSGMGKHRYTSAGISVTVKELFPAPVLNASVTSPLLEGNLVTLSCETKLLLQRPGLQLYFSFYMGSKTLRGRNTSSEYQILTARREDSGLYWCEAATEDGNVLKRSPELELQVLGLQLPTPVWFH

First: B1
Second: B2
The relative binding activity of the first is lower: 20 % of GpH7-B3/GpL16-k0 for the first, 48 % of GpH7-B3/GpL16-k0 for the second.

B3 and B4 are the same in relative binding activity: 3 % of GpH7-B3/GpL16-k0 for the first, 3 % of GpH7-B3/GpL16-k0 for the second.

Compared with B5, B6 is higher in relative binding activity: 5 % of GpH7-B3/GpL16-k0 for the first, 82 % of GpH7-B3/GpL16-k0 for the second.

First: B7
Second: B8
The relative binding activity of the first is lower: 45 % of GpH7-B3/GpL16-k0 for the first, 64 % of GpH7-B3/GpL16-k0 for the second.

Compared with B9, B10 is higher in relative binding activity: 45 % of GpH7-B3/GpL16-k0 for the first, 74 % of GpH7-B3/GpL16-k0 for the second.

Going from B11 to B12, the relative binding activity rises from 93 % of GpH7-B3/GpL16-k0 to 99 % of GpH7-B3/GpL16-k0.

Compared with B13, B14 is higher in relative binding activity: 94 % of GpH7-B3/GpL16-k0 for the first, 98 % of GpH7-B3/GpL16-k0 for the second.
